Data on 4 molecules can be found in article doi:10.1101/2024.06.26.600769 (bioRxiv, 2024).

The target of assay [1] is T1, E. coli β-clamp (bacterial DNA sliding clamp), His6-tagged (E. coli, UniProt P0A988 1-366). The assay can be described thus: NMR titration.
For assay [2], the target named is T1, E. coli β-clamp (bacterial DNA sliding …). The assay can be described thus: ITC.

No end group written: not given here.

T1 sequence (P0A988 whole entry): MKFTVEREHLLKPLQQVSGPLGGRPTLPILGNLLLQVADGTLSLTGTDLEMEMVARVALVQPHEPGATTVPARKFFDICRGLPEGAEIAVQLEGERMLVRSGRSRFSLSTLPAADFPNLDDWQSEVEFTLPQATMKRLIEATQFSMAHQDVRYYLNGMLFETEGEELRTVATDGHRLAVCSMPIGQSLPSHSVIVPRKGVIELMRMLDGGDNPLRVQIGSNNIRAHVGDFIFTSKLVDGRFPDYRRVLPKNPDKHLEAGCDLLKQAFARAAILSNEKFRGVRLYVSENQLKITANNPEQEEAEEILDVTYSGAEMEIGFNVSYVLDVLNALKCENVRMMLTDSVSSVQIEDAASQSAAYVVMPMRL

B1: pol IV* peptide, 15-mer of the polymerase IV C-terminus with an N-terminal Trp (GWLDPQMERQLVLGL) (peptide)
peptide: GWLDPQMERQLVLGL
As to B1, in assay [1], the binding result is recorded as “binds”.

B2: MutL* peptide, 16-mer with the clamp binding motif of MutL and an N-terminal Trp (GWGEAPVCAQPLLIPL-NH2) (peptide)
peptide: GWGEAPVCAQPLLIPL
modifications: not fully specified (C-terminus); printed as GWGEAPVCAQPLLIPL-NH2
Take B2: in assay [1], the binding result is recorded as “binds”.

B3: MutS* peptide, 16-mer with the clamp binding motif of MutS and an N-terminal Trp (GWATQVDGTQMSLLSV-NH2) (peptide)
peptide: GWATQVDGTQMSLLSV
modifications: not fully specified (C-terminus); printed as GWATQVDGTQMSLLSV-NH2
Regarding B3, the binding result in assay [1] is listed as “binds”.

B4: pol III* peptide, 16-mer of the polymerase III α subunit C-terminus with an N-terminal Trp (DWRGLIGSEQVELEFD) (peptide)
peptide: DWRGLIGSEQVELEFD
Take B4: in assay [2], the binding result is reported as “binds”.
